Each block holds one binder with its values, some of them ahead of it. No end group written: not given here.
Key:
[1] = biological target: T1, BSA-conjugated human SEMG2 (497-509) polypeptide (human, also: coupled to BSA, site not given here); experiment: ELISA on BSA-S2 (497-509); curve without upper plateau; the EC50 table prints no unit, the axis is log (antibody concentration, nM)
T1 peptide: QIEKLVEGKSQIQ

[2] = biological target: T1, BSA-conjugated human SEMG2 (497-509) …; experiment: ELISA (FIG. 21B-D)
[3] = biological target: T2, human SEMG2 full-length protein (human, UniProt Q02383 24-582, limits assumed); experiment: ELISA (FIG. 21B-D)
T2 construct: also called SEMG2 protein; semenogelin 2
T2 sequence: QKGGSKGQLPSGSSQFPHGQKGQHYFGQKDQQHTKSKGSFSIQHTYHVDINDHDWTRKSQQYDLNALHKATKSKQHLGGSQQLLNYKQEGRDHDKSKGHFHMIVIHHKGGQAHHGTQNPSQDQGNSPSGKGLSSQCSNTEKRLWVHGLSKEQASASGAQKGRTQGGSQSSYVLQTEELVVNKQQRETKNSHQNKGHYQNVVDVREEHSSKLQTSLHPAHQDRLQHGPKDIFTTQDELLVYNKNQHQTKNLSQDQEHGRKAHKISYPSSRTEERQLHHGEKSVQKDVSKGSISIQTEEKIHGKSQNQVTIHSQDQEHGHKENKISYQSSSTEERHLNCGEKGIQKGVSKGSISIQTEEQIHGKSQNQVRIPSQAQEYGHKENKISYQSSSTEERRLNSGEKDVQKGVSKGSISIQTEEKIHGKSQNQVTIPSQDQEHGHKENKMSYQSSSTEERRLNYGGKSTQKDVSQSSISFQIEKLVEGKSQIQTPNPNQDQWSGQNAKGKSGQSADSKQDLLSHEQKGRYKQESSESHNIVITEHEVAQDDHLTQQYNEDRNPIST

[4] = biological target: T2, human SEMG2 full-length protein; experiment: ELISA on SEMG2; the EC50 table prints no unit, the axis is log (antibody concentration, nM)
QIEKLVEGKSAIQ = biological target: T3, QIEKLVEGKSAIQ (not fully specified); experiment: ELISA, immobilized peptide QIEKLVEGKSAIQ
T3 construct: alanine at this position
T3 peptide: QIEKLVEGKSAIQ
From the text: (§1) FIG. 20 depicts the value detected by ELISA, i.e., OD₄₅₀ absorbance. […] This experiment is used to determine the precise amino acid epitopes that different monoclonal antibodies bind to, and the relative importance of each amino acid to the binding antibody.

QIEKLVEGASQIQ = biological target: T4, QIEKLVEGASQIQ (not fully specified); experiment: ELISA, immobilized peptide QIEKLVEGASQIQ
T4 construct: member of the group m41; the text speaks of glycine substitution, the sheet prints alanine
T4 peptide: QIEKLVEGASQIQ
From the text: as §1

AIEKLVEGKSQIQ = biological target: T5, AIEKLVEGKSQIQ (not fully specified); experiment: ELISA, immobilized peptide AIEKLVEGKSQIQ
T5 construct: member of the group m41; the text speaks of glycine substitution, the sheet prints alanine
T5 peptide: AIEKLVEGKSQIQ
From the text: as §1

QIEKAVEGKSQIQ = biological target: T6, QIEKAVEGKSQIQ (not fully specified); experiment: ELISA, immobilized peptide QIEKAVEGKSQIQ
T6 construct: alanine at this position
T6 peptide: QIEKAVEGKSQIQ
From the text: as §1

QIAKLVEGKSQIQ = biological target: T7, QIAKLVEGKSQIQ (not fully specified); experiment: ELISA, immobilized peptide QIAKLVEGKSQIQ
T7 construct: member of the group m41; the text speaks of glycine substitution, the sheet prints alanine
T7 peptide: QIAKLVEGKSQIQ

[5] = biological target: T2, human SEMG2 full-length protein; experiment: ELISA, immobilized antigen SEMG2 (1-582)
From the text: (§2) To clearly distinguish the binding epitopes of blocking antibodies (i.e., antibodies that can inhibit the binding between SEMG2 and CD27) and non-blocking antibodies, a corresponding ELISA analysis method was established. […] Anti-mouse or anti-rabbit secondary antibodies were then used to detect the corresponding bound antibodies.

QIEKLAEGKSQIQ = biological target: T8, QIEKLAEGKSQIQ (not fully specified); experiment: ELISA, immobilized peptide QIEKLAEGKSQIQ
T8 construct: member of the group m41; the text speaks of glycine substitution, the sheet prints alanine
T8 peptide: QIEKLAEGKSQIQ
From the text: as §1

SEMG2(563-574) fragment = biological target: T9, SEMG2(563-574) fragment (human); experiment: ELISA, immobilized antigen SEMG2 (563-574)
T9 peptide: VAQDDHLTQQYN
From the text: as §2

QIEALVEGKSQIQ = biological target: T10, QIEALVEGKSQIQ (not fully specified); experiment: ELISA, immobilized peptide QIEALVEGKSQIQ
T10 construct: member of the group m41; the text speaks of glycine substitution, the sheet prints alanine
T10 peptide: QIEALVEGKSQIQ
From the text: as §1

QIEKLVEGKSQIA = biological target: T11, QIEKLVEGKSQIA (not fully specified); experiment: ELISA, immobilized peptide QIEKLVEGKSQIA
T11 construct: alanine at this position
T11 peptide: QIEKLVEGKSQIA
From the text: as §1

QAEKLVEGKSQIQ = biological target: T12, QAEKLVEGKSQIQ (not fully specified); experiment: ELISA, immobilized peptide QAEKLVEGKSQIQ
T12 construct: member of the group m41; the text speaks of glycine substitution, the sheet prints alanine
T12 peptide: QAEKLVEGKSQIQ
From the text: as §1

[6] = biological target: T2, human SEMG2 full-length protein; experiment: ELISA, plate coated with SEMG2 protein, anti-mouse secondary antibody; the EC50 table prints no unit, the axis is log (antibody concentration, nM)
[7] = biological target: T2, human SEMG2 full-length protein; experiment: biolayer interferometry (ForteBio Blitz or Gator)
Procedure: The equilibrium dissociation constant (KD) of the antibody of the present invention binding to human SEMG2 was determined by biolayer interferometry (ForteBio Bltz or Gator instrument). […] 100 μl of SD buffer, antibody and SEMG2 were added to a 96-well black polystyrene half area microplate, respectively. Select the sensor location based on the sample location layout. KD values were analyzed using molecular interaction analysis software. In the experiments of the assays, the affinity constants of murine monoclonal antibodies and human antibodies H88-67, H88-93 and H88-96 are shown in Table 8, and the affinity and dissociation curves of SEMG2 and corresponding proteins are shown in FIG. 25.

[8] = biological target: T13, SEMG2(497-509) polypeptide QIEKLVEGKSQIQ (human); experiment: ELISA, immobilized antigen SEMG2 (497-509)
T13 peptide: QIEKLVEGKSQIQ
From the text: as §2

[9] = biological target: T13, SEMG2(497-509) polypeptide QIEKLVEGKSQIQ; experiment: ELISA, immobilized peptide QIEKLVEGKSQIQ
From the text: as §1

QIEKLVEGKAQIQ = biological target: T14, QIEKLVEGKAQIQ (not fully specified); experiment: ELISA, immobilized peptide QIEKLVEGKAQIQ
T14 construct: alanine at this position
T14 peptide: QIEKLVEGKAQIQ
From the text: as §1

QIEKLVAGKSQIQ = biological target: T15, QIEKLVAGKSQIQ (not fully specified); experiment: ELISA, immobilized peptide QIEKLVAGKSQIQ
T15 construct: member of the group m41; the text speaks of glycine substitution, the sheet prints alanine
T15 peptide: QIEKLVAGKSQIQ
From the text: as §1
To further precisely define the exact epitopes (specific to the level of single amino acid) to which blocking antibodies MM02, MM05, MM07, MM08, MM13, MM14 bind, corresponding ELISA analysis method was established. […] Anti-mouse or anti-rabbit secondary antibodies were then used to detect the corresponding bound antibodies.

QIEKLVEAKSQIQ = biological target: T16, QIEKLVEAKSQIQ; experiment: ELISA, immobilized peptide QIEKLVEAKSQIQ
T16 construct: member of the group m41; position 504 is glycine in SEMG2 and the sheet prints alanine there
T16 peptide: QIEKLVEAKSQIQ
From the text: as §1

SEMG2(354-403) fragment = biological target: T17, SEMG2(354-403) fragment (human); experiment: ELISA, immobilized antigen SEMG2 (354-403)
T17 peptide: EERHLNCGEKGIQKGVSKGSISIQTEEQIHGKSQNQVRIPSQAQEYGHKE
From the text: as §2

SEMG2(442-453) fragment = biological target: T18, SEMG2(442-453) fragment (human); experiment: ELISA, immobilized antigen SEMG2 (442-453)
T18 peptide: IHGKSQNQVTIP
From the text: as §2

QIEKLVEGKSQAQ = biological target: T19, QIEKLVEGKSQAQ (not fully specified); experiment: ELISA, immobilized peptide QIEKLVEGKSQAQ
T19 construct: member of the group m41; the text speaks of glycine substitution, the sheet prints alanine
T19 peptide: QIEKLVEGKSQAQ
From the text: as §1

- EC50 [1]: 38.5 nM
- fold higher affinity than the parent antibody (H88-67) [2]: > 10 fold
- fold higher affinity than the parent antibody (H88-67) [3]: > 10 fold
- EC50 [4]: 0.619 nM
B1: 67-6-67-6 (antibody, V domains shown)
VH: QVQLLESGGGVVQPGRSLRLSCAASGFTFSSYAMHWVRQASGKGLEWVAVISYDGSNKYYADSVKGRFTISRDNSKNTLYLQMNSLRAEDTAVYYCARMDGHGSPDYWGQGTLVTVSS
VL: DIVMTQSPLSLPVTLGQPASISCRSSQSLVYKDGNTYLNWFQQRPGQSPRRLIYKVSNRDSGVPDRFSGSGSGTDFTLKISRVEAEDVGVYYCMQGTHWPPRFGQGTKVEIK

- OD450 absorbance (QIEKLVEGKSAIQ): 1.19
- OD450 absorbance (QIEKLVEGASQIQ): 0.818
- OD450 absorbance (AIEKLVEGKSQIQ): 0.48
- OD450 absorbance (QIEKAVEGKSQIQ): 0.049
- OD450 absorbance (QIAKLVEGKSQIQ): 0.67
- A450 absorbance [5]: 1.13
- OD450 absorbance (QIEKLAEGKSQIQ): 0.658
- A450 absorbance (SEMG2(563-574) fragment): 0.01
- binding result (SEMG2(563-574) fragment): no binding
- OD450 absorbance (QIEALVEGKSQIQ): 0.712
- OD450 absorbance (QIEKLVEGKSQIA): 1.25
- OD450 absorbance (QAEKLVEGKSQIQ): 0.467
- EC50 [6]: 0.382 nM
- Kd [7]: 0.693 nM
- A450 absorbance [8]: 1.14
- OD450 absorbance [9]: 1.23
- OD450 absorbance (QIEKLVEGKAQIQ): 0.211
- OD450 absorbance (QIEKLVAGKSQIQ): 0.738
- OD450 absorbance (QIEKLVEAKSQIQ): 0.842
- A450 absorbance (SEMG2(354-403) fragment): 0.001
- binding result (SEMG2(354-403) fragment): no binding
- A450 absorbance (SEMG2(442-453) fragment): 0.008
- binding result (SEMG2(442-453) fragment): no binding
- OD450 absorbance (QIEKLVEGKSQAQ): 0.699
B2: MM13 (antibody, V domains shown)
VH: EVQLQQSGAELVRSGASVKLSCTASGFNIKDYYMHWMKQRPEQGLEWIGWIDPENGDNEYAPKFQGKATMTADTSSNTAYLQLSSLTSEDTAVYYCNVGGAHYWGQGTTLTVSS
VL: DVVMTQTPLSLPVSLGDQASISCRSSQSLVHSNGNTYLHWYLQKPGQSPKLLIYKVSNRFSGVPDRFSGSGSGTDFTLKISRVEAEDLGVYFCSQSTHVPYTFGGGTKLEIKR

- OD450 absorbance (QIEKLVEGKSAIQ): 1.18
- OD450 absorbance (QIEKLVEGASQIQ): 0.621
- OD450 absorbance (AIEKLVEGKSQIQ): 0.813
- OD450 absorbance (QIEKAVEGKSQIQ): 0.161
- OD450 absorbance (QIAKLVEGKSQIQ): 0.776
- A450 absorbance [5]: 1.12
- OD450 absorbance (QIEKLAEGKSQIQ): 0.804
- binding result (SEMG2(563-574) fragment): no binding
- OD450 absorbance (QIEALVEGKSQIQ): 0.777
- OD450 absorbance (QIEKLVEGKSQIA): 1.23
- OD450 absorbance (QAEKLVEGKSQIQ): 0.54
- EC50 [6]: 0.507 nM
- Kd [7]: 1.44 nM
- A450 absorbance [8]: 1.11
- OD450 absorbance [9]: 1.17
- OD450 absorbance (QIEKLVEGKAQIQ): 0.022
- OD450 absorbance (QIEKLVAGKSQIQ): 0.766
- OD450 absorbance (QIEKLVEAKSQIQ): 0.47
- A450 absorbance (SEMG2(354-403) fragment): 0.003
- binding result (SEMG2(354-403) fragment): no binding
- A450 absorbance (SEMG2(442-453) fragment): 0.007
- binding result (SEMG2(442-453) fragment): no binding
- OD450 absorbance (QIEKLVEGKSQAQ): 0.588
B3: MM14 (antibody, IgG2b, V domains shown)
VH: QVQLKESGPGLVAPSQSLSITCTVSGFSLTSYAVSWVRQPPGKGLEWLGIIWGDGSTNYHSALISRLSISKDNSKSQVFLKLNSLQTDDTATYYCAKQERFSDGYYDGFAYWGQGTLVTVSA
VL: QIVLTQSPAIMSASPGEKVTITCSASSSVSYMHWFQQKPGTSPKLWIYSTSNLASGVPARFSGSGSGTSYSLTISRMEAEDAATYYCQQRSSYPFTFGSGTKLEIKR

Source: patent publication US20230080534A1 (SHANGHAI BIOTROY BIOTECHNIQUE, published 2023)
